The source of these data is publication PMC9288967.

pKd: −log10 of the molar value.

For the experiment, the target named is SARS-CoV-2 spike RBD (wild type) (SARS-CoV-2) (UniProt P0DTC2). The experiment in a line: BLI.

Substance mNb6(108FFY) (VHH) had a negative-log Kd (pKd) of 9.04.
